Source: US7169567 (GENERAL HOSPITAL, dated 2007)
Where no end group is shown, it is not given here.

Columns and labels:
Test in all cases: cell-based or functional assay
[1] = biological target: T1, truncated rat PTH-1 receptor rΔNt (rat, UniProt P25961 182-591)
T1 sequence: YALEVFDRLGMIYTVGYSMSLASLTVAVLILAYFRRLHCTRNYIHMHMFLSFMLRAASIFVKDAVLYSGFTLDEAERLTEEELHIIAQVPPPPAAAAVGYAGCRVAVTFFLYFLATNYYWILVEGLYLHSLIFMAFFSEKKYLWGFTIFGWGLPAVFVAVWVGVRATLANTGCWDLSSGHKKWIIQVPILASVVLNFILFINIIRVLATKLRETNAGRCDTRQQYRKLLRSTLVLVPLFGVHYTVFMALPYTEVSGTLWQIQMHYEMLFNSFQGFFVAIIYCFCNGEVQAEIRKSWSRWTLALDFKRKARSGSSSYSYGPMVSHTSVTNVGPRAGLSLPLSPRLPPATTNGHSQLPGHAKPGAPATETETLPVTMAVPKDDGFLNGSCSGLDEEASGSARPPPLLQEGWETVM

[2] = biological target: intact rat PTH-1 receptor with HA epitope tag (rWT-HA) (rat, UniProt P25961 23-92; P25961 27-591)
intact rat PTH-1 receptor with HA epitope tag (rWT-HA), sequence (P25961 whole entry, one chain of several): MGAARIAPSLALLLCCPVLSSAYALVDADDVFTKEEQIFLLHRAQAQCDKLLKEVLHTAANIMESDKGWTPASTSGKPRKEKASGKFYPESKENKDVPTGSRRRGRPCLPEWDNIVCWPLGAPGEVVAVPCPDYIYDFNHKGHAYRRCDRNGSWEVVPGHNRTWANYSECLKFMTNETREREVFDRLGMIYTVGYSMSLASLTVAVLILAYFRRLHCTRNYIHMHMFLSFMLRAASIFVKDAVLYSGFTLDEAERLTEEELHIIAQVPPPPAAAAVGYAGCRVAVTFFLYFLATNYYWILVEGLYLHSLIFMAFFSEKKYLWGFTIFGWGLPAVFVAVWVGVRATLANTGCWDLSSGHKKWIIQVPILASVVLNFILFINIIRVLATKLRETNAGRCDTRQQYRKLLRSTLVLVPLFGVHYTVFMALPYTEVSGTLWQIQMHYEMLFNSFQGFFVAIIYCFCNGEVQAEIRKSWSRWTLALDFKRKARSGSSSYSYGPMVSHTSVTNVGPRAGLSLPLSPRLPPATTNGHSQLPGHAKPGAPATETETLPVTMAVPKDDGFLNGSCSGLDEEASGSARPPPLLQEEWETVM

human PTH-1 receptor = biological target: T2, human PTH-1 receptor (human, UniProt Q03431 27-593)
T2 sequence (looked up): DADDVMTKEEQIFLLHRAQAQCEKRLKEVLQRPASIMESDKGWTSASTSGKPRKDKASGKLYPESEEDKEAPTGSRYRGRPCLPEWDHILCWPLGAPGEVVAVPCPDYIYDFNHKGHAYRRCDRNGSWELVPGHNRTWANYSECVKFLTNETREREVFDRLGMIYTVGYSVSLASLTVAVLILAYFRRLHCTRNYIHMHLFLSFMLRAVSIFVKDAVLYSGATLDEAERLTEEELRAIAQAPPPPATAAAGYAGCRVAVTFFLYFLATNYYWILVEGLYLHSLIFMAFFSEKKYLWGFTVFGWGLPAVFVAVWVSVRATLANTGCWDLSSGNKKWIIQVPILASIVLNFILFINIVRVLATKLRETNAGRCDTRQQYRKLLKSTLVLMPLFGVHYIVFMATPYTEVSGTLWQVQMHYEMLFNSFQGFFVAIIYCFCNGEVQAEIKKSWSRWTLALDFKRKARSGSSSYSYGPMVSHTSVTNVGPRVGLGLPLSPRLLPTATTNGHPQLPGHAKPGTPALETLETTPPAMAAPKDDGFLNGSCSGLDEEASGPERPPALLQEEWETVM

B1: rat PTH(1-14) (peptide, UniProt P04089 32-45, looked up)
peptide: AVSEIQLMHNLGKH-NH2
For B1, the “cAMP potency relative to PTH(1-34)” value [1] was 2 orders of magnitude, the cAMP formation [2] was 15 fold and the “cAMP formation over the basal level” value (human PTH-1 receptor) was roughly 20 fold. The “cAMP potency relative to PTH(1-34)” value (human PTH-1 receptor) was ~5 orders of magnitude.
